The values that follow come from patent US20220220224A1 (Hoffmann-La Roche, published 2022).

Assay [1] concerns the target T1, recombinant biotinylated monomeric Fc fusion of cynomolgus Folate Receptor 1 (cy FolR1 ECD-AcTev-Fcknob-Avi … (cynomolgus, UniProt P0DOX5 223-449 = IgG part, biotin on the C-terminal Avi tag)).
T1 construct: also called cyFolR1-Fc; cyno FolR1
Put plainly: SPR Biacore, affinity (monovalent), antibody captured via anti-Fab. As for the experimental part:
(§1) The affinity of the interaction between the anti-FolR1 IgG or T cell bispecifics and the recombinant folate receptors was determined as described below (Table 26).
(§2) For affinity measurement, direct coupling of around 12000 resonance units (RU) of the anti-human Fab specific antibody (Fab capture kit, GE Healthcare) was performed on a CM5 chip at pH 5.0 using the standard amine coupling kit (GE Healthcare). Anti-FolR1 IgG or T cell bispecifics were captured at 20 nM with a flow rate of 10 μl/min for 40 sec, the reference flow cell was left without capture. […] The dissociation phase was monitored for 300 s and triggered by switching from the sample solution to HBS-EP. The chip surface was regenerated after every cycle using a double injection of 60 sec 10 mM Glycine-HCl pH 1.5. Bulk refractive index differences were corrected for by subtracting the response obtained on the reference flow cell 1. The affinity constants for the interactions were derived from the rate constants by fitting to a 1:1 Langmuir binding using the Bia Evaluation software (GE Healthcare).

The target in assay [2] is T2, recombinant biotinylated monomeric Fc fusion of murine Folate Receptor 1 (mu FolR1 ECD-AcTev-Fcknob-Avitag … (murine, UniProt P0DOX5 223-449 = IgG part, biotin on the C-terminal Avi tag)).
T2 construct: also called muFolR1-Fc; murine FolR1
Described as above. As for the experimental part:
as §1, §2

The target in assay [3] is T3, recombinant biotinylated monomeric Fc fusion of human Folate Receptor 1 (huFolR1 ECD-AcTev-Fcknob-Avi tag … (human, UniProt P0DOX5 223-449 = IgG part, biotin on the C-terminal Avi tag)).
T3 construct: also called huFolR1-Fc; human FolR1-Fc
The description is as above. Here is the method: as §1, §2

Assay [4] concerns the target T4, recombinant biotinylated monomeric Fc fusion of human Folate Receptor 3 (hu FolR3 ECD-AcTev-Fcknob-Avi tag … (human, UniProt P0DOX5 223-449 = IgG part, biotin on the C-terminal Avi tag)).
T4 construct: also called FolR3-Fc
Put plainly: SPR Biacore, single injection on immobilized antigen-Fc. The essentials:
(§3)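 Biacore T200 at 25 °C in HBS-EP (HEPES pH 7.4). Biotinylated FolR-Fc fusions captured on SA chip at about 300-400 RU. IgGs injected once at 500 nM for 60 s to assess cross-reactivity and specificity.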
In general terms: In SPR one partner is held on a chip, and binding of the other changes the refractive index at the surface.

Assay [5] addresses T5, recombinant biotinylated monomeric Fc fusion of human Folate Receptor 2 (hu FolR2 ECD-AcTev-Fcknob-Avi tag … (human, UniProt P0DOX5 223-449 = IgG part, biotin on the C-terminal Avi tag)).
T5 construct: also called FolR2-Fc
The description is as above. The essentials:
as §3

B1: 36F2 IgG (antibody, V domains shown)
VH: QVQLVQSGAEVKKPGASVKVSCKASGYTFTSYYMHWVRQAPGQGLEWMGIINPSGGSTSYAQKFQGRVTMTHDTSTSTVYMELSSLRSEDTAVYYCARSFFTGFHLDYWGQGTLVTVSS
VL: EIVLTQSPGTLSLSPGERATLSCRASQSVSSSYLAWYQQKPGQAPRLLIYGASSRATGIPDRFSGSGSGTDFTLTISRLEPEDFAVYYCQQYTNEHYYTFGQGTKVEIK
Take B1: the Kd (usually the constant that tells how readily two partners part at equilibrium) in assay [1] was found to be 570 nM; in assay [2] it was 210 nM; in assay [3], 730 nM. Moreover, the koff (commonly the first-order rate constant of dissociation) was found to be 0.0578 s⁻¹ in assay [1], 0.0178 s⁻¹ in assay [2] and 0.0665 s⁻¹ in assay [3]. Besides, the values for the kon in assay [1], in assay [2] and in assay [3] were 102000 M⁻¹ s⁻¹, 83200 M⁻¹ s⁻¹ and 91000 M⁻¹ s⁻¹, respectively. In addition, the binding result in assay [4] and in assay [5] was “no binding (tested: 500 nM)” throughout.
